This is an account of results in publication PMC3185043.

Common to all, as to experiment: pull-down SILAC MS
Data set [1] relates to MBD2 (U937 nuclear extract) (Homo sapiens). As to conditions: 5-methylcytosine at CpG (M.SssI); EMSA: 20 mM HEPES pH 7.9, 1 mM EDTA, 3 mM MgCl2, 10 mM beta-mercaptoethanol, 10% glycerol, 0.1% Triton X-100, 2 ug BSA, 10 ng poly(dI-dC), 30 min on ice …; scale: H/L ratio methylated/unmethylated. (In general: A gel shift assay detects complexes by their altered migration in electrophoresis.)

Data set [2] has as its system RBP-J (U937 nuclear extract) (Homo sapiens). The following applies: reverse ratio 0.11974; 5-methylcytosine at CpG (M.SssI); EMSA: 20 mM HEPES pH 7.9, 1 mM EDTA, 3 mM MgCl2, 10 mM beta-mercaptoethanol, 10% glycerol, 0.1% Triton X-100, 2 ug BSA, 10 ng poly(dI-dC), 30 min on ice …; scale: H/L ratio methylated/unmethylated.
For data set [3], the system named is MeCP2 (U937 nuclear extract) (Homo sapiens). The following applies: reverse ratio 0.18572; 5-methylcytosine at CpG (M.SssI); EMSA: 20 mM HEPES pH 7.9, 1 mM EDTA, 3 mM MgCl2, 10 mM beta-mercaptoethanol, 10% glycerol, 0.1% Triton X-100, 2 ug BSA, 10 ng poly(dI-dC), 30 min on ice …; scale: H/L ratio methylated/unmethylated.

Consider “GSTP1 CpG-island multimer, methylated (pull-down)”, for which the binding signal in data set [1] amounted to 12.9; in data set [2] it was 6.21; in data set [3], 4.54.
